The labels stand for the following.
B1: F1*; the commonest letter at each place (parent)
chain: GAGACCGCAACTGAAAAGTTGTTATCACTTGTCGTAAGACACTTTGGATGGGTTGAAGTTCTGCACGTAGAAGCAAAAGGC

Variants of B1 are the subject of this data set. Put plainly: fraction ligated after 30 min (ligated reads / total reads); higher = more ligase activity. Particulars: with F1*sub RNA substrate (template-directed ligation), 42 °C. The gist of the method: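 Oligo-pool templates of ligase ribozyme variants were PCR-amplified, T7-transcribed and gel-purified. Ligated and unligated bands were gel-separated, reverse transcribed with barcoded primers, and MiSeq-sequenced; core bases were filtered at quality ≥20. Fraction ligated per variant was ligated reads over total reads.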
As to GAGACCGCAACTGAAAAGTTGTTATCACTTGCCGTAAGACACTTTGGAAGGGTTGAAGTTCTGCACGTAGAAGCAAAAGGC [T32C T49A], the fraction ligated amounted to 0.512. GAGACCGCAACTGAAAAGTTGTTATCTCTTGTCGTAAGATACTTTGGATGGGTTGAAGTTCTGCACGTAGAAGCAAAAGGC [A27T C40T]: the fraction ligated stood at 0.847. The same measure for GAGACCGCAACTGAAAAGTTGTTATCACTTGTCTTAAGACGCTTTGGATGGGTTGAAGTTCTGCACGTAGAAGCAAAAGGC [G34T A41G]: 0.768; for GAGACCGCAACTGAAAAGTTGTTATCACTTCTCGTAAGACACTTTGGACGGGTTGAAGTTCTGCACGTAGAAGCAAAAGGC [G31C T49C]: 0.0658. Consider GAGACCGCAACTGAAAAGTTGTTATTACTTGTCGTAAGACACTTTGGATGGGTTGAGGTTCTGCACGTAGAAGCAAAAGGC [C26T A57G], for which the fraction ligated was determined as 0.86. GAGACCGCAACTGAAAAGTTGTTATCTCTTGTCGTAAGACACGTTGGATGGGTTGAAGTTCTGCACGTAGAAGCAAAAGGC [A27T T43G]: the fraction ligated turned out to be 0.784. On to GAGACCGCAACTGAAAAGTTGTTATCACATGTCGTAAGACACCTTGGATGGGTTGAAGTTCTGCACGTAGAAGCAAAAGGC [T29A T43C], for which the fraction ligated was 0.804.

Consider GAGACCGCAACTGAAAAGTTGTTATCACTTGTCGTAAGACACTCTGGGTGGGTTGAAGTTCTGCACGTAGAAGCAAAAGGC [T44C A48G], for which the fraction ligated was determined as 0.821. The same measure for GAGACCGCAACTGAAAAGTTGTTATCACTTGTCGTGAGAAACTTTGGATGGGTTGAAGTTCTGCACGTAGAAGCAAAAGGC [A36G C40A]: 0.829; for GAGACCGCAACTGAAAAGTTGTTATCACTTGTCGTAGGACACTTTGCATGGGTTGAAGTTCTGCACGTAGAAGCAAAAGGC [A37G G47C]: 0.269. With GAGACCGCAACTGAAAAGTTGTTATTACTTGTCGTAAGACACATTGGATGGGTTGAAGTTCTGCACGTAGAAGCAAAAGGC [C26T T43A], the fraction ligated is 0.827. For GAGACCGCAACTGAAAAGTTGTGATCACTTTTCGTAAGACACTTTGGATGGGTTGAAGTTCTGCACGTAGAAGCAAAAGGC [T23G G31T], the fraction ligated came to 0.868. In the case of GAGACCGCAACTGAAAAGTTGTTATCACTCGTCGTAAAACACTTTGGATGGGTTGAAGTTCTGCACGTAGAAGCAAAAGGC [T30C G38A] it was 0.797; in that of GAGACCGCAACTGAAAAGTTGTTATCACTGGTCGTGAGACACTTTGGATGGGTTGAAGTTCTGCACGTAGAAGCAAAAGGC [T30G A36G], 0.872. Turning to GAGACCGCAACTGAAAAGTTGTTACCACTTGTCGTACGACACTTTGGATGGGTTGAAGTTCTGCACGTAGAAGCAAAAGGC [T25C A37C], the fraction ligated is 0.766.

On to GAGACCGCAACTGAAAAGTTGTTATCACTTGTCGTAAAACACTTTGGGTGGGTTGAAGTTCTGCACGTAGAAGCAAAAGGC [G38A A48G], for which the fraction ligated is 0.796. As to GAGACCGCAACTGAAAAGTTGTTATCACTTGTCGTAAGACAATTAGGATGGGTTGAAGTTCTGCACGTAGAAGCAAAAGGC [C42A T45A], the fraction ligated stood at 0.766. The same measure for GAGACCGCAACTGAAAAGTTGTTATCACTTGTCGTTAGACACTTTGGATGGGTTGGAGTTCTGCACGTAGAAGCAAAAGGC [A36T A56G]: 0.795; for GAGACCGCAACTGAAAAGTTGTTATCACTAGTCGGAAGACACTTTGGATGGGTTGAAGTTCTGCACGTAGAAGCAAAAGGC [T30A T35G]: 0.827; for GAGACCGCAACTGAAAAGTTGTTATCACTTGTCGTAAGAAACTTTGGATGGGTTGACGTTCTGCACGTAGAAGCAAAAGGC [C40A A57C]: 0.812.

For the variant GAGACCGCAACTGAAAAGTTGTTATCACTTGACGTAAGACACTTTGGATCGGTTGAAGTTCTGCACGTAGAAGCAAAAGGC [T32A G50C], the fraction ligated came to 0.0632. Take GAGACCGCAACTGAAAAGTTGTTATCACTTGTCGTATAACACTTTGGATGGGTTGAAGTTCTGCACGTAGAAGCAAAAGGC [A37T G38A]: the fraction ligated was 0.827. For the variant GAGACCGCAACTGAAAAGTTGTTATCACTTGTCGTAAGACAGTTTGAATGGGTTGAAGTTCTGCACGTAGAAGCAAAAGGC [C42G G47A], the fraction ligated was 0.805. As for GAGACCGCAACTGAAAAGTTGTTATCACTTGTCGTACGAAACTTTGGATGGGTTGAAGTTCTGCACGTAGAAGCAAAAGGC [A37C C40A], the fraction ligated was found to be 0.82. The same measure for GAGACCGCAACTGAAAAGTTGTTATCACTTCTCGAAAGACACTTTGGATGGGTTGAAGTTCTGCACGTAGAAGCAAAAGGC [G31C T35A]: 0.796; for GAGACCGCAACTGAAAAGTTGTTATCACTTGTCGTAACACACTTTGGATGGGTTGAGGTTCTGCACGTAGAAGCAAAAGGC [G38C A57G]: 0.87; for GAGACCGCAACTGAAAAGTTGTTATCACTTGTCGTACTACACTTTGGATGGGTTGAAGTTCTGCACGTAGAAGCAAAAGGC [A37C G38T]: 0.844. On to GAGACCGCAACTGAAAAGTTGTTATCACTTGTCGTAGGACACTTTGGATGGGTTGGAGTTCTGCACGTAGAAGCAAAAGGC [A37G A56G], for which the fraction ligated turned out to be 0.818.

As for GAGACCGCAACTGAAAAGTTGTTATCACTTATCGTAAGACACGTTGGATGGGTTGAAGTTCTGCACGTAGAAGCAAAAGGC [G31A T43G], the fraction ligated amounted to 0.807. For the variant GAGACCGCAACTGAAAAGTTGTTATCACTTGTCGTAAAACACTTTGGATGGGTTGAAGTTCTGCACGTAGAAGCAAAAGGC [G38A], the fraction ligated is 0.844. As to GAGACCGCAACTGAAAAGTTGTTAGCACCTGTCGTAAGACACTTTGGATGGGTTGAAGTTCTGCACGTAGAAGCAAAAGGC [T25G T29C], the fraction ligated came to 0.385. Take GAGACCGCAACTGAAAAGTTGTTACCTCTTGTCGTAAGACACTTTGGATGGGTTGAAGTTCTGCACGTAGAAGCAAAAGGC [T25C A27T]: the fraction ligated was found to be 0.774. Turning to GAGACCGCAACTGAAAAGTTGTTATCACTTGTGGCAAGACACTTTGGATGGGTTGAAGTTCTGCACGTAGAAGCAAAAGGC [C33G T35C], the fraction ligated came to 0.825.

As for GAGACCGCAACTGAAAAGTTGTTATCACTTGCCGTAAGACACTTTTGATGGGTTGAAGTTCTGCACGTAGAAGCAAAAGGC [T32C G46T], the fraction ligated was found to be 0.729.

For the origin of these results see the supplement of paper PMC6755084.
